In this experiment the target is PERV TM_(493–587) (tag intact) (porcine endogenous retrovirus A (PERV-A)). Kind of experiment: SEC; Superdex 75 10/300 GL in 10 mM Tris-HCl, pH 7.5, 150 mM NaCl; calibrated with protein standards (Kav curve); apparent MW ~43 kDa against theoretical trimeric MW 39.9 kDa. A general note: SEC sorts molecules by how far they enter the pores of the column.

The source of these data is paper PMC8787476.

One may read the stoichiometry N as a count of units in the complex or per binding partner. Regarding “PERV TM_(493–587) (tag intact) (domain or fragment)”, the stoichiometry N was found to be 3.
